Data as given in article doi:10.1101/2020.11.24.393629 (bioRxiv, 2020).

Assays:
SARS-CoV RBD = SARS-CoV RBD (SARS-CoV, GenBank NC_004718.3, UniProt P59594); test: BLI
[1] = biological target: SARS-CoV-2 S on 293T cells expressing SARS-CoV-2 S (SARS-CoV-2-S cells) (SARS-CoV-2, UniProt P0DTC2); test: flow cytometry on cells
[2] = biological target: T1, Recombinant RBD protein of SARS-CoV-2 with His tag (SARS-CoV-2, UniProt P0DTC2); test: flow cytometry on cells
[3] = biological target: T1, Recombinant RBD protein of SARS-CoV-2 …; test: ELISA

B1: HB27, humanized anti-SARS-CoV-2 monoclonal antibody (IgG) (antibody, V domains shown)
VH: VKLVESGGGLVKPGGSLRLSCAASGFTFTNYGMSWVRQAPGKRLEWVAEISSGGSYTYYPDTVTGRFTISRDNAKNTLYLQMNSLRAEDTAVYYCARFRYGGGGTVDYWGQGTLVTVSS
VL: IVLTQSPTLSLSPGERATLSCRASESVDNYGISFMNWFQQKPGQAPRLLIYAASNQGSGIPSRFSGSGSGTDFSLTISSLEPEDFAVYFCQQSKEVPRIFGQGTKVEIL
In the case of B1, the binding result (SARS-CoV RBD) is reported as “no binding”, the EC50 [1] is reported as 5 to 50 nM and the EC50 [2] is reported as 5 to 50 nM. It also gave an EC50 [3] of 0.5 nM.
